# Experiment: yeast display, Sf9 membrane polyspecificity reagent, FACS + sequencing; frameworks hold sequencing errors
# Summary of the method: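 Synthetic nanobody libraries on Saccharomyces cerevisiae BJ5465 were galactose-induced for 36–48 hours, stained 1 hour at 4 °C with 10% biotinylated, detergent-solubilized Sf9 membrane reagent and enriched on streptavidin microbeads. FACS then separated cells into low and high (top ~1%) gates by anti-HA (expression) and streptavidin (reagent binding) fluorescence. Genes were colony-PCR amplified, MiSeq 2 × 250 sequenced and CDR-length filtered. A clone's polyreactivity label is that of its gate of origin.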
row,Sequence,polyreactivity (PSR sort gate)
1,QVQLVESGGGLVQAGGSLRLSCPASGRIFDYYAMGRYRQAPGKERELVARITSGGTTNYADSVKGRFTISRDNAKNTVFLQMNSLKPEDTAVYYCNAQDYCDPLQMDYWGQGTQVTVSS,low polyreactivity
2,QVQLVESGGGLVQAGGSLRLSCPASGRIFKWYAMGWYRPAPGKERELVAAISWSGGRTYYADSVKGRFTISRDNAKNTVYLQMHSVKPEDTAVYYCAAAIRYRNYVYLYDYWGQGTQVTVSS,high polyreactivity
3,QVQLVESGGGLVQAGGSLRLSCPASGRTFRYYAMGWYRQAPGKERELVAAITANGGSTFYADSVKGRFTISRDNAKNTVYLQMNSLKPEDTAVYYCAARFYTSSRYNYWGQGTQVTVSS,high polyreactivity
4,QVQLVESGGGLVQAGGSLRLSCPASGRTFYRNAMGWYRQAPGKEREFVAVITWSTGTTYYADSVKGRFTISRDNAKNTVYLQMNSPKPEDTAVYYCAADSQPPHELYESIEHESWGQGTQVTVSS,low polyreactivity
5,QVQLVESGGGLVQAGGSLRLSCPASGRTSVINAMGWYRQAPGKETELVATITWSAASTYYADSVKGRFTISRDNAKNTVYLQMNSLKPEDTAVYYCATDSAQYGYDYWGQGTQVTVSS,low polyreactivity
6,QVQLVESGGGLVQAGGSLRLSCPASGSIFDRYAMGWYRQAPGKERELVAAISWSDSRTYYADSVKGRFTISRDNAKNTVYFQMNSLKPEDTAVYYCAADGSTWGDYRTYGYWGQGTQVTVSS,low polyreactivity
7,QVQLVESGGGLVQAGGSLRLSCPASGSIFQGNAMGWYRQAPGKERELVAAISWSGDSTYYADSVKGRFTISRDNAKNTVYLQMNSLKPEDTAVYYCNAEWTRDFYEYDYWGQGTQVTVSS,low polyreactivity
8,QVQLVESGGGLVQAGGSLRLSCPASGSIFYENAMGWYRQAPGKARELVAAISRSGGSTYYADSVKGRFTISRDNAKNTVYLQMNSLKPEDTAVYYCNTEGGVIRRYWYDYWGQGTQVTVSS,low polyreactivity
9,QVQLVESGGGLVQAGGSLRLSCPASGSTFWYYDMGWSRQAPGKERELVAAISGSGGRTYYADSVKGRFTISRDNAKNTVYLQMNSLKPEDTAVYYCAADYYWSADFKYNDWGQGTQVTVAS,low polyreactivity
10,QVQLVESGGGLVQAGGSLRLSCPASGYTFYVYAMGWYRQAPGKERELVAAIGGGSTNYADSVKGRFTISRDNAKNTVYLQMNSLKPEDTAVYYCAARRYYKFYYWGQGTQVTVSS,high polyreactivity
11,QVQLVESGGGLVQAGGSLRLSCPDSGFIFYLYDMGWYRQAPGKEREVVAAITDRGGSTYYADSVKGRFTITRDNAKITVYLQLKSLKPEDTAVYSCAAASSAIDSSVTMDYWGQGTQVTVSS,low polyreactivity
12,QVQLVESGGGLVQAGGSLRLSCSASGGTFITNAMGWYRQAPGKERELVAAITSGGRTTYADSVKGRFTISRDNAKNTVYLQMNSLKPEDTAVYYCAADHVYSYTYNFDYWGQGTQVTVSS,low polyreactivity
13,QVQLVESGGGLVQAGGSLRLSCSASGITFEGYAMGGYRQAPGKERELVAAIRSSGTSRYYADSVKGRFTISRDNAKNTVYLQMNSQKPEDTAVYYCNRARSSSRYDYWGQGTQVTVSS,low polyreactivity
14,QVQLVESGGGLVQAGGSLRLSCSASGITFTGYGMGWYRQAPGKERELVAAIRLRTGSTYYADSVKGRFTISRDNAKNTVYLQMNSLKPEDTAVYYCAKKWSSKYWGQGTQVTVSS,high polyreactivity
15,QVQLVESGGGLVQAGGSLRLSCSASGLIFWAYAMGWYRQAPGKERELVAAINWRGGSTYYADSVKGRFTISRDNAKNTVYLQMNSLKPEDTAVYYCNTDFQLGEGGSYGYDYWGQGTQVTVSS,low polyreactivity
16,QVQLVESGGGLVQAGGSLRLSCSASGLTFGNNAMGWYRQAPGKETELVAAISSDGTTYYADSVKGRFTISRDHAKNTVYLQMNSLKPEDSAVYYCAALYGPGREYDYWGQGTQVTVSS,low polyreactivity
17,QVQLVESGGGLVQAGGSLRLSCSASGRIFDTYAMGWYRQAPGKERELVAAIRRTGGSTYYADSVKGRFTISRDNAKNTVYLQMNSLKPEDTAVYYCAAEYTVSYLRMDYWGQGTQVTVSS,low polyreactivity
18,QVQLVESGGGLVQAGGSLRLSCSASGRILVLNAMGWYRQAPGTERELVADITSGGSTYYADSVKGRFTISRDNAKNTVYLQMNSLKPEDTAVYYCAADWNTYPDYQQSYFVSYEYNYWGQGTQVTVSS,low polyreactivity
19,QVQLVESGGGLVQAGGSLRLSCSASGRISVFNVMGWYRQAPGKERELVAAITSGGSTIYADSVKGRFTISRDNAKNTVYLQMNSLKPEDTAVYYCAALYQFHGKIWDGDYWGQGTQVTVSS,low polyreactivity
20,QVQLVESGGGLVQAGGSLRLSCSASGRTFSWYAMGWYRKAPGKERELVAAISYSGGSTYYADSVKGRFTISRDNAKNTVYLQMNSLKPEDTAVYYCARTRRHSQNFDYWGQGTQVIVSS,high polyreactivity
21,QVQLVESGGGLVQAGGSLRLSCSASGRTLGRNAMGWYRPAPGKERELVAAISWGGGDTSYADSVKGRFTISRDNAKNTVYLQMNSLKPEDTAVYYCNRYYTPYRRWGYDYWGQGTQVTVSS,high polyreactivity
22,QVQLVESGGGLVQAGGSLRLSCSASGRTSQWNAMGWYRQAPGKERELVAAISWRTGGTYYADSVKGRFTISRDKAKNTVYLQMNSLQPEDTAVYYCAAGYIGGRPQYWRIGGYWGQGTQVTVSS,high polyreactivity

row,Sequence,polyreactivity (PSR sort gate)
1,QVQLVESGGGLVQAGGSLRLSCSASGSIFGGYAMGWYRQAPGKEREFVAAISRRGASTYYADSVKGRYTISRDNAKNTVYLQMNSLKPEDTAVYYCNARAYGRIDGLSATYGYWGQGTQVTVSS,high polyreactivity
2,QVQLVESGGGLVQAGGSLRLSCSASGSIFKIYAMGWYRQAPGKERELVASITGSGGSTYYADSVKGRFTISRDNAKNTVYLQMNSLKPEDTAVYYCAAAVLGSSKSEVDPDRPEYYYWGQGTQVTVSS,low polyreactivity
3,QVQLVESGGGLVQAGGSLRLSCSASGSIFRVYGMGWYRQAPGKERELVAAITWSGGSTYYADSVKGRFTISRDNAQNTVYLQMNSLKPEDTAVYYCAARARPRYYRQPYDYLGQGTQVTVSS,high polyreactivity
4,QVQLVESGGGLVQAGGSLRLSCSASGSIFSNAMGWYRQAPGKERELVAAITGRGGRTYYADSVKGRFTITRDNAKNSVYLQMNSLKPEDTAVYYCARDSPWSSRYRYRAFDYWGQGTQVTVSS,high polyreactivity
5,QVQLVESGGGLVQAGGSLRLSCSASGSNFYTNAMGWYRQAPGKERELVAVITASGGSTYYADSVKGRFTISRDYAKNTVYLLMNSLKPEDTAVYYCASDPVFNYDYWGQGTQVTVSS,low polyreactivity
6,QVQLVESGGGLVQAGGSLRLSCSASGSTFAYYTMGWYRQAPGKERELVAAISRSGGSTYYSDSVKGRFTISRDNAKNTVYLQMNSLKPEDTAVYYCAADKHYAVIPYEYWGQVTQVTVSS,high polyreactivity
7,QVQLVESGGGLVQAGGSLRLSCSASGSTFDTYAMGWYRKAPGKERELVAAISRSGGSTYYADSVKWRFTISRDNAKNTVYLQMNSLKPEDTAVYFCNALSGDLAGDYWGQGTQVTVSS,high polyreactivity
8,QVQLVESGGGLVQAGGSLRLSCSASGSTFERYAMGWYRQAPGKERELVAAISAIGDSTYYADSVKGRFTISRDNANNTVYLQMNSLKPEDTAVYYCAAKTSDYGYYYWGQGTQVTVSS,high polyreactivity
9,QVQLVESGGGLVQAGGSLRLSCSASGSTFKYNAKGWYIQETGKEWELVAYITRGGHTNYAVSVKGRFTISRDNAKNTVYLQMNRLKPEDTAVYYCAAVRPSVGFRGAWYPQYDYWGQGTQVTVSS,low polyreactivity
10,QVQLVESGGGLVQAGGSLRLSCSASGSTFSDNVMGWYRQAPGKERELVAGITRSGGRTYYADSVKGRFTISRDNAKNTVYLQMNSLKPEDTAVYYCAAASSGEYGYWGQGTQVTVSS,low polyreactivity
11,QVQLVESGGGLVQAGGSLRLSCSASGSTFVVYAMGWSRQAPGKERELVAAISESGSSTYYADSVKGRFTISRDNAKNTVYLQMNSLKPEDTAVYYCNALYYDWHPEYQVIFSDFYYWGQGTQVTVSS,low polyreactivity
12,QVQLVESGGGLVQAGGSLRLSCSASGSTFWYYAMGWYRKAPGKERELVAAITRGASTNYADSVKGRFTISRDNAKNTVYLQMISLIPEDTAVYYCAAGPARWKGYYWGQGTQVTVSS,high polyreactivity
13,QVQLVESGGGLVQAGGSLRLSCSASGSTFYLYAMGWYRQAPGKEREFVADISLSGDSTYYADSVKGRFTISRDNAKNTVYLQMNSLKPEDTAVYYCAADVFYPGPWSYEYWGQGTQVTVSS,low polyreactivity
14,QVQLVESGGGLVQAGGSLRLSCSASGYIFGRNSMGWYRTAHGKERELVAVISSRGSRTYYADSVKGRFTISRDNAKNTVYLQMNSLKPEDTAVYYCNAVLWWDWVYDFYYWGQGNQVTVSS,high polyreactivity
15,QVQLVESGGGLVQAGGSLRLSCSASGYIYQYNSMGWYRQAPGKERELVAANSRGGRTNYADSVKGRFTISRDNAKNTVYLQMNSLKPEDTEVYYCAAKRPWGYYPWSTQTGDYWGQGTQVTVSS,high polyreactivity
16,QVQLVESGGGLVQAGGSLRLSCSASRSTFYGNAMGWYRQAPGKERELVAAISSGDITYYADSVKGRFTISRDNAKNTVYLQMNSLKPEDTAVYYCATDYGYSWYDYWGQGTQVTVSS,low polyreactivity
17,QVQLVESGGGLVQAGGSLRLSCSAYGSIFYGYAMGWYRQAPGKERELVAAITWSGGSTYYADSVKGRFTISRDIAKNTVYLQMNSLKPEDTAVYYCNALWVWYRGSSVRWVGGYDYWGQGTQVTVSS,high polyreactivity
18,QVQLVESGGGLVQAGGSLRLSCSDSGRTFGGNAMGRYRQAPGKERELVAAISRSGGTTYYADSVKGRFTISRDNAKNTVYLQMNSLKPEDTAVYYCNTRRYGAMYYWGQGTQVTVSS,high polyreactivity
19,QVQLVESGGGLVQAGGSLRLSCTASGSIFTRNTMGSYRQAPGKERELVAAISRRGGSTDYADSVKGRFTISRDNAKNTVYLQMNSLKPEDTAVYYCAADLGYEYDYWGQGTQVTVSS,high polyreactivity
20,QVQLVESGGGLVQAGGSLRLSCVASARTFFRYAMGWYRQAPGKERELVADITRGGSTYYADSVKGRFTISRDNAKNTVYLQMNSLKPEDTAVYYCNADGRVQRKYDYWGQGTQVTVSS,high polyreactivity
21,QVQLVESGGGLVQAGGSLRLSCVASGGIFFHYAMRWYRHARGKERELVAAISISGGSTYSADSVKGRFTISRDNAKNTVYLQMNSLKPEDTAVYYCAARYWVRRKDYWGQGTQVTVSS,low polyreactivity
